From publication PMC5999394, “Design principles of a microtubule polymerase” (eLife, 2018)

Experiments:
[1] = biological target: wild-type yeast microtubules (polymerized wild-type yeast αβ-tubulin) (S. cerevisiae) (UniProt P09733); test: TIRF microscopy, fluorescence intensity of the Stu2-eGFP spot on the growing microtubule end; end intensity dynamic assay; 5-300 nM Stu2-eGFP (titration, hyperbolic fit; apparent) or 200 nM variant; 0.8 μM wild-type yeast tubulin; 30°C
[2] = biological target: T1, wild-type yeast microtubules (polymerized wild-type yeast αβ-tubulin) (S. cerevisiae, UniProt P09733 1-447; P02557 1-457); test: as above; details: both partners purified
T1 construct: Tub1p (yeast α-tubulin), S. cerevisiae; Tub2p (yeast β-tubulin), S. cerevisiae; Polymer of m2; also called microtubule lattice; microtubule end
T1 sequence (P09733 whole entry, chain 1 of 2): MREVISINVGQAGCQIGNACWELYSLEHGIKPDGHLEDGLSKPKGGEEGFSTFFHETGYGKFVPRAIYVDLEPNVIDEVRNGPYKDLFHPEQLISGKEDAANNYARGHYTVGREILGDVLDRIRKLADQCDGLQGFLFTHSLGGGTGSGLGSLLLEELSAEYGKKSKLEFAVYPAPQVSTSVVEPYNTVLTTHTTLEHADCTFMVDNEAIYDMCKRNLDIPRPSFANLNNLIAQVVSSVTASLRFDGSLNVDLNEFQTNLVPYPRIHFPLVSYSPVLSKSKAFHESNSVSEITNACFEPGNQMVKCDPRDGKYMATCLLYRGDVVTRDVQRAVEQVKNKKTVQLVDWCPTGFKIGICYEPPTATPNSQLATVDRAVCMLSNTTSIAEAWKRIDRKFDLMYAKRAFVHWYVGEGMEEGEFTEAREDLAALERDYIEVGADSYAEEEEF
T1 sequence (P02557 whole entry, chain 2 of 2): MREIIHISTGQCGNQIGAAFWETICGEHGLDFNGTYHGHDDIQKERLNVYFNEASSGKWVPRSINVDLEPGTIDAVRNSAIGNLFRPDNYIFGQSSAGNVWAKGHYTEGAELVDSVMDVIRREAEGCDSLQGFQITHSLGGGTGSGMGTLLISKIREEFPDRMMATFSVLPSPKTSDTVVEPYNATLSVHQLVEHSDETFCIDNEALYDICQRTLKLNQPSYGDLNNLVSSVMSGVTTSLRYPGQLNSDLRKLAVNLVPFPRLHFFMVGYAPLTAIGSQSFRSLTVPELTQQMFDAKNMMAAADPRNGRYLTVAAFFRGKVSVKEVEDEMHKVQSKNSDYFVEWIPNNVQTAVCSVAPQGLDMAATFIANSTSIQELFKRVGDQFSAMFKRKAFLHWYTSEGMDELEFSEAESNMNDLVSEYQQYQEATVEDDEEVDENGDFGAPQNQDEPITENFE

[3] = biological target: T1, wild-type yeast microtubules …; test: single-molecule TIRF microscopy, residence time on the growing microtubule end; 5 nM Stu2-eGFP variant with 1-1.5 µM unlabeled wild-type yeast tubulin; 100 ms streaming; one-phase exponential fit of the dwell times; 30°C; details: both partners purified
[4] = biological target: T1, wild-type yeast microtubules …; test: TIRF microscopy of Stu2-eGFP on dynamic microtubules (kymographs); axoneme-seeded unlabeled dynamic yeast microtubules on the cover slip; Stu2-eGFP variant (100-200 nM) with 0.5-0.8 μM unpolymerized yeast tubulin in imaging buffer (1X PEM, 50 µM GTP, 0.1 mg/mL BSA, antifade); 30°C; details: both partners purified

Chain of wild-type yeast microtubules (polymerized wild-type yeast αβ-tubulin) (S. cerevisiae) (P09733 whole entry, chain 1 of 2): as the sequence (P09733 whole entry, chain 1 of 2) above
Chain of wild-type yeast microtubules (polymerized wild-type yeast αβ-tubulin) (S. cerevisiae) (P02557 whole entry, chain 2 of 2, further chain): as the sequence (P02557 whole entry, chain 2 of 2) above

| Molecule | relative amount of polymerase on the microtubule end (wild type = one) (relative to wild type) [1] | relative amount of polymerase on the microtubule end (wild type = one) [2] | characteristic residence time on the growing microtubule end [3] | binding result [4] |
| --- | --- | --- | --- | --- |
| Stu2(TOG2-TOG2)-eGFP (from UniProt P46675 1-888) | 1 |  |  |  |
| Stu2(TOG2-TOG2*)-eGFP (other) MSGEEEVDYTTEETILDKLPKDFQERITSSKWKDRVEALEEFWDSVLSQTKKLKSTSQNYSNLLGIYGHIIQKDANIQAVALAAQSVELICDKLKTPGFSKDYVSLVFTPLLDRTKEKKPSVIEAIRKALLTICKYYDPLASSGRNEDMLKDILEHMKHKTPQIRMECTQLFNASMKEEKDGYSTLQRYLKDEVVPIVIQIVNDTQPAIRTIGFESFAILIKIFGMNTFVKTLEHLDNLKRKKIEETVKTDEPSSSKMLFEWEKRELEKKRSQEEEARKRKSILSNDEGEYQIDKDGDTLMGMETDMPPSKQQSGVQIDTFSMLPEETILDKLPKDFQERITSSKWKDRVEALEEFWDSVLSQTKKLKSTSQNYSNLLGIYGHIIQKDANIQAVALAAQSVELICDKLKTPGFSKDYVSLVFTPLLDRTKEKKPSVIEAIRKALLTICKYYDPLASSGRNEDMLKDILEHMKHKTPQIRMECTQLFNASMKEEKDGYSTLQRYLKDEVVPIVIQIVNDTQPAIATIGFESFAILIKIFGMNTFVKTLEHLDNLKRKKIEETVKTLPNFSIASGSTHSTIETNKQTGPMENKFLLKKSSVLPSKRVASSPLRNDNKSKVNPIGSVASASKPSMVAANNKSRVLLTSKSLATPKNVVANSTDKNEKLIEEYKYRLQKLQNDEMIWTKERQSLLEKMNNTENYKIEMIKENEMLREQLKEAQSKLNEKNIQLRSKEIDVNKLSDRVLSLENELRNMEIELDRNKKRNDTNLQSMGTISSYSIPSSTVSSNYGVKSLSSALPFKEEEDVRRKEDVNYERRSSESIGDLPHRVNSLNIRPYRKNGTGVSSVSDDLDIDFNDSFASEESYKRAAAVTSTLKARIEKMKAKSRREGTTRT |  | 0.5 relative to wild type | 3.9 s |  |
| 'doubly dead' Stu2(TOG1*-TOG2*)-eGFP (natural protein, S. cerevisiae, UniProt P46675 1-888, looked up, Stu2, S. cerevisiae, fully dimeric (888) background; also called double dead Stu2; source: E. coli Arctic Express, purified (His60 Superflow, Strep-Tactin); not shown: eGFP, C-terminal, kept) MSGEEEVDYTTLPLEERLTYKLWKARLEAYKELNQLFRNSVGDISRDDNIQIYWRDPTLFAQYITDSNVVAQEQAIVALNSLIDAFASSSLKNAHNITLISTWTPLLVEKGLTSSRATTKTQSMSCILSLCGLDTSITQSVELVIPFFEKKLPKLIAAAANCVYELMAAFGLTNVNVQTFLPELLKHVPQLAGHGDRNVASQTMNLIVEIYKVTGNNSDLLEEILFKKLKPIQVKDLHKLFAKVGDEPSSSKMLFEWEKRELEKKRSQEEEARKRKSILSNDEGEYQIDKDGDTLMGMETDMPPSKQQSGVQIDTFSMLPEETILDKLPKDFQERITSSKWKDRVEALEEFWDSVLSQTKKLKSTSQNYSNLLGIYGHIIQKDANIQAVALAAQSVELICDKLKTPGFSKDYVSLVFTPLLDRTKEKKPSVIEAIRKALLTICKYYDPLASSGRNEDMLKDILEHMKHKTPQIRMECTQLFNASMKEEKDGYSTLQRYLKDEVVPIVIQIVNDTQPAIATIGFESFAILIKIFGMNTFVKTLEHLDNLKRKKIEETVKTLPNFSIASGSTHSTIETNKQTGPMENKFLLKKSSVLPSKRVASSPLRNDNKSKVNPIGSVASASKPSMVAANNKSRVLLTSKSLATPKNVVANSTDKNEKLIEEYKYRLQKLQNDEMIWTKERQSLLEKMNNTENYKIEMIKENEMLREQLKEAQSKLNEKNIQLRSKEIDVNKLSDRVLSLENELRNMEIELDRNKKRNDTNLQSMGTISSYSIPSSTVSSNYGVKSLSSALPFKEEEDVRRKEDVNYERRSSESIGDLPHRVNSLNIRPYRKNGTGVSSVSDDLDIDFNDSFASEESYKRAAAVTSTLKARIEKMKAKSRREGTTRT |  |  |  | binds |
| Stu2(TOG1*-TOG2)-eGFP (R200A) (natural protein, S. cerevisiae, UniProt P46675 1-888, looked up, Stu2, S. cerevisiae, fully dimeric (888) background; also called TOG1* (R200A); source: E. coli Arctic Express, purified (His60 Superflow, Strep-Tactin); not shown: eGFP, C-terminal, kept) MSGEEEVDYTTLPLEERLTYKLWKARLEAYKELNQLFRNSVGDISRDDNIQIYWRDPTLFAQYITDSNVVAQEQAIVALNSLIDAFASSSLKNAHNITLISTWTPLLVEKGLTSSRATTKTQSMSCILSLCGLDTSITQSVELVIPFFEKKLPKLIAAAANCVYELMAAFGLTNVNVQTFLPELLKHVPQLAGHGDRNVASQTMNLIVEIYKVTGNNSDLLEEILFKKLKPIQVKDLHKLFAKVGDEPSSSKMLFEWEKRELEKKRSQEEEARKRKSILSNDEGEYQIDKDGDTLMGMETDMPPSKQQSGVQIDTFSMLPEETILDKLPKDFQERITSSKWKDRVEALEEFWDSVLSQTKKLKSTSQNYSNLLGIYGHIIQKDANIQAVALAAQSVELICDKLKTPGFSKDYVSLVFTPLLDRTKEKKPSVIEAIRKALLTICKYYDPLASSGRNEDMLKDILEHMKHKTPQIRMECTQLFNASMKEEKDGYSTLQRYLKDEVVPIVIQIVNDTQPAIRTIGFESFAILIKIFGMNTFVKTLEHLDNLKRKKIEETVKTLPNFSIASGSTHSTIETNKQTGPMENKFLLKKSSVLPSKRVASSPLRNDNKSKVNPIGSVASASKPSMVAANNKSRVLLTSKSLATPKNVVANSTDKNEKLIEEYKYRLQKLQNDEMIWTKERQSLLEKMNNTENYKIEMIKENEMLREQLKEAQSKLNEKNIQLRSKEIDVNKLSDRVLSLENELRNMEIELDRNKKRNDTNLQSMGTISSYSIPSSTVSSNYGVKSLSSALPFKEEEDVRRKEDVNYERRSSESIGDLPHRVNSLNIRPYRKNGTGVSSVSDDLDIDFNDSFASEESYKRAAAVTSTLKARIEKMKAKSRREGTTRT |  |  | 1.7 s |  |
| Stu2(TOG1-TOG2*)-eGFP (R519A) (natural protein, S. cerevisiae, UniProt P46675 1-888, looked up, Stu2, S. cerevisiae, fully dimeric (888) background; also called TOG2* (R519A); source: E. coli Arctic Express, purified (His60 Superflow, Strep-Tactin); not shown: eGFP, C-terminal, kept) MSGEEEVDYTTLPLEERLTYKLWKARLEAYKELNQLFRNSVGDISRDDNIQIYWRDPTLFAQYITDSNVVAQEQAIVALNSLIDAFASSSLKNAHNITLISTWTPLLVEKGLTSSRATTKTQSMSCILSLCGLDTSITQSVELVIPFFEKKLPKLIAAAANCVYELMAAFGLTNVNVQTFLPELLKHVPQLAGHGDRNVRSQTMNLIVEIYKVTGNNSDLLEEILFKKLKPIQVKDLHKLFAKVGDEPSSSKMLFEWEKRELEKKRSQEEEARKRKSILSNDEGEYQIDKDGDTLMGMETDMPPSKQQSGVQIDTFSMLPEETILDKLPKDFQERITSSKWKDRVEALEEFWDSVLSQTKKLKSTSQNYSNLLGIYGHIIQKDANIQAVALAAQSVELICDKLKTPGFSKDYVSLVFTPLLDRTKEKKPSVIEAIRKALLTICKYYDPLASSGRNEDMLKDILEHMKHKTPQIRMECTQLFNASMKEEKDGYSTLQRYLKDEVVPIVIQIVNDTQPAIATIGFESFAILIKIFGMNTFVKTLEHLDNLKRKKIEETVKTLPNFSIASGSTHSTIETNKQTGPMENKFLLKKSSVLPSKRVASSPLRNDNKSKVNPIGSVASASKPSMVAANNKSRVLLTSKSLATPKNVVANSTDKNEKLIEEYKYRLQKLQNDEMIWTKERQSLLEKMNNTENYKIEMIKENEMLREQLKEAQSKLNEKNIQLRSKEIDVNKLSDRVLSLENELRNMEIELDRNKKRNDTNLQSMGTISSYSIPSSTVSSNYGVKSLSSALPFKEEEDVRRKEDVNYERRSSESIGDLPHRVNSLNIRPYRKNGTGVSSVSDDLDIDFNDSFASEESYKRAAAVTSTLKARIEKMKAKSRREGTTRT |  | 0.5 relative to wild type | 4 s |  |
